In patent publication US20050283857A1 (UNIVERSITY OF GEORGIA RESEARCH FOUNDATION, published 2005) one finds Kd data, which are given here for one molecule.

The experiment concerns the target Cry1Ab toxin (Bacillus thuringiensis). Put plainly: 125I-Cry1Ab toxin binding saturation assay on S2 cells; dissociation constant (Kcom).

B1: Cad7-12 truncated Bt-R1a cadherin expressed in S2 cells (receptor)
chain: GTLEQNFRVREMSAGGLVVGSVRADDIDGPLYNQVRYTIFPREDTDKDLIMIDFLTGQISVNTSGAIDADTPPRFHLYYTVVASDRCSTEDPADCPPDPTYWETEGNITIHITDTNNKVPQAETTKFDTVVYIYENATHLDEVVTLIASDLDRDEIYHTVSYVINYAVNPRLMNFFSVNRETGLVYVDYETQGSGEVLDRDGDEPTHRIFFNLIDNFMGEGEGNRNQNDTEVLVILLDVNDNAPELPPPSELSWTISENLKQGVRLEPHIFAPDRDEPDTDNSRVGYEILNLSTERDIEVPELFVMIQIANVTGELETAMDLKGYWGTYAIHIRAFDHGIPQMSMNETYELIIHPFNYYAPEFVFPTNDAVIRLARERAVINGVLATVNGEFLERISATDPDGLHAGVVTFQVVGDEESQRYFQVVNDGANLGSLRLLQAVPEEIREFRITIRATDQGTDPGPLSTDMTFRVVFVPTQGEPRFASSEHAVAFIEKSAGMEESHQLPLAQDIKNHLCEDDCHSIYYRIIDGNSEGHFGLDPVRNRLFLKKELIREQSASHTLQVAASNSPDGGIPLPASILTVTVTVREADPRPVFMRELYTAGISTADSIGRELLRLHATQSEGAAITYAIDYDTMVVDPSLEAVRQSAFVLNAQTGVLTLNIQPTATMHGLFKFEVTATDTAGAQDRTDVTVYVVSSQNRVYFVFVNTLQQVEDNRDFIADTFSAGFNMTCNIDQVVPANDPVTGVALEHSTQMRGHFIRDNVPVLADEIEQIRSDLVLLSSIQTTLAARSLVLQDLLTNSSPDSAPDSSLTVYVLASLSAVLGFMCLVLLLTFIIRTRALNRRLEALSMTKYGSLDSGLNRAGIAAPGTNKHTVEGSNPIFNEAIKTPDLDAISEGSNDSDLIGIEDLPHFGNVFMDPEVNEKANGYPEVANHNNNFAFNPTPFSPEFVNGQFRKI
In general, Kd refers to a measure of binding affinity in units of concentration. The molecule B1 displayed a Kd of 2.05 nM.
